One substance from US20230305005A1 can be followed below.

In test [1] the target is RBD polypeptide (RBD portion of the SARS-CoV-2 S1 spike protein) (SARS-CoV-2) (UniProt P0DTC2). The test is described as follows: BLI, biotinylated antibody on streptavidin tip, RBD polypeptide in PBS; row for 100 nM RBD. (In general: In BLI a coated tip is dipped into the sample, and binding shifts an interference pattern.)
The target is the same in test [2]. Kind of test: BLI, biotinylated antibody on streptavidin tip, RBD polypeptide in PBS; row for 10 nM RBD.

As to Ty1-Biotin (VHH), in test [1], the Kd (usually a measure of binding affinity in units of concentration) was 9.93 nM; the koff (as a rule, a measure of how fast the partners let go of each other) worked out at 0.00101 s⁻¹; the kon (as a rule, a measure of how fast the partners come together) was determined as 102000 M⁻¹ s⁻¹. In test [2], this substance returned an equilibrium dissociation constant (Kd) of 9.93 nM, a koff of 0.00101 s⁻¹ and a kon of 102000 M⁻¹ s⁻¹.
